B1: 3C12 (antibody, V domains shown)
VH: QVQLKESGPGLVAPSQSLSITCTVSGFSLNGYGVNWVRQPPGKDLEWLGMIWGDGITEFNSALKSRLSISKDNSKSQVFLKMNSLQTEDTARYYCVRQGSGVWFAYWGQGTLVS
VL: DVLVTQTPLSLPVSLGDQASISCRSSQTIVHSNGNTYLEWYLQKPGQSPKLLIYKVSNRFSGVPDRFSGSGSGTDFTLKISRVEAEDLGVYYCFQGSHVPYTFGGGTKLEIK
notes: anti-human RYK mAb; also called 3C12 mAb
B2: 11E9 (antibody, V domains shown)
VH: QVQLKESGPGLVAPSQSLSITCTVSGFSLNGYGVNWVRQPPGKDLEWLGMIWGDGITEFNSALKSRLSISKDNSKSQVFLKMNSLQTEDTARYYCVRQGSGVWFAYWGQGTLS
VL: B1 VL with S61C
notes: anti-human RYK mAb; also called 11E9 mAb
B3: recombinant human RYK protein used in KinExA (receptor, UniProt P34925 46-227, looked up)
chain: AAPAPRPPELQSASAGPSVSLYLSEDEVRRLIGLDAELYYVRNDLISHYALSFSLLVPSETNFLHFTWHAKSKVEYKLGFQVDNVLAMDMPQVNISVQGEVPRTLSVFRVELSCTGKVDSEVMILMQLNLTVNSSKNFTVLNFKRRKMCYKKLEEVKTSALDKNTSRTIYDPVHAAPTTSTR
notes: Legend prints 'RYK2'; also called recombinant human RYK2 protein
B4: 7-H10 anti-human RYK mAb (antibody, V domains shown)
VH: QVQLQQSGAELAKPGTSVKLSCKASGYIFTNYDINWVRQRPEQGLEWIGWIFPGDDSTKYNEKFEGKAALTTDKSSNTAYIQLSRLTSGDSAVYFCTRYHYYGSSLGWSFDVWGAGTSVTVSS
VL: EIVLTQSPALMAASPGEKVTITCSVSSRISSINLHWYQQKSETSPKTWIYGTSNLASGVPSRFSGSGSGTSYSLTISNMEAEDAATYYCQQWSSYPYTFGGGTKVEIK
notes: Mouse hybridoma mAb, kappa light chain, detected with anti-mouse IgG; also called mAb 7-H10

Substitutions are numbered along the chain they refer to.

For assay [1], the target named is T1, recombinant extracellular protein of mouse RYK (mouse, UniProt Q01887 35-211).
T1 construct: also called mRYK; not shown: rabbit IgG tag for purification
The assay can be described thus: dot blot of recombinant RYK proteins (rabbit IgG tag) on nylon membrane, probed with the mAb, anti-mouse IgG-HRP. The method, then: FIGS. 4A-4B illustrate the […] of amino acids required for binding of anti-human RYK mAb to the extracellular domain of human RYK (SEQ ID NO:129). FIG. 4A illustrates experiments in which binding of 2-D11, 7-H10, 3-C12, 11-E9, 6-B5, 6-D10 and sheep anti-RYK mAb was assessed using recombinant human RYK proteins (SEQ ID NO:129) in which one amino acid that differs between human and mouse RYK within the extracellular domain was replaced with the corresponding amino acid of mouse RYK. Each recombinant protein was transferred onto nylon membrane, probed with the indicated anti-RYK mAb or Sheep anti-RYK Ab, and detected with an anti-mouse IgG or donkey-anti-sheep antibody conjugated with horse radish peroxidase. Rabbit anti-IgG blotting is a positive for protein blotting and detection as recombinant proteins have a rabbit IgG tag for purification. Alignment of the protein sequences of the extracellular domain of human and mouse RYK are shown in the lower panel and the boxed amino acids indicate the amino acids changes made for each recombinant protein. […]

The assay “7-H10 anti-human RYK mAb” deals with B4. The assay can be described thus: KinExA 3200: free mAb captured on RYK-coated particles in the presence of rising molar concentration of soluble RYK. The method, then:
(§1) Analysis was performed using a KinExA 3200 instrument. FIG. 7A: The proportion of anti-human RYK mAb bound to particles coated with RYK protein (y-axis) in the presence of increasing molar (M) concentration of soluble RYK competitor (x-axis) is shown for 2-D11 mAb (upper left panel) and 7-H10 mAb (lower left panel).
(In general: In KinExA the mixture passes briefly over coated beads that capture the unbound partner.)

In assay [2] the target is B3. The assay can be described thus: KinExA 3200, soluble RYK competitor against RYK-coated particles. The method, then: as §1
The target of assay [3] is T1, recombinant extracellular protein of …. The assay can be described thus: immunoblot of recombinant extracellular protein on nylon membrane. How it is done:
FIG. 4A illustrates experiments in which binding of 2-D11, 7-H10, 3-C12, 11-E9, 6-B5, 6-D10 and sheep anti-RYK mAb was assessed using recombinant human RYK proteins (SEQ ID NO:129) in which one amino acid that differs between human and mouse RYK within the extracellular domain was replaced with the corresponding amino acid of mouse RYK. Each recombinant protein was transferred onto nylon membrane, probed with the indicated anti-RYK mAb or Sheep anti-RYK Ab, and detected with an anti-mouse IgG or donkey-anti-sheep antibody conjugated with horse radish peroxidase. […]
The anti-human RYK mAbs, 2-D11 and 7-H10, appear specific for an amino terminal epitope of human Ryk (residues 46-57) that are distinct from those in mouse Ryk (FIG. 3); these mAbs also bind mutant forms of Ryk containing amino acid substitutions in human Ryk at positions that differ from that of the highly homologous mouse Ryk to assimilate mouse Ryk at the site of substitution, with amino acid sequence shown in FIG. 3, as shown by immunoblot analyses of recombinant extracellular proteins of human or mouse or each of the various mutant forms of human Ryk (FIG. 4) For this, the binding of 2-D11, 7-H10, or Sheep anti-RYK mAb was assessed using recombinant extracellular RYK proteins as specified in the Key. […]
(In general: Immunoblotting shows a protein as a band on a membrane.)

As for B1, in assay [1], the binding result is given as “no binding”.
With B2, the binding result in assay [1] is recorded as “no binding”.
With B3, the “IC50 (read off the curve)” value with 7-H10 anti-human RYK mAb was approximately 20 nM.
As a reminder, the Kd is the free concentration of one partner at which half of the binding sites on the other are occupied at equilibrium, for simple one-to-one binding. Regarding B4, in assay [2], the Kd is 10.6 nM. Further, in assay [3], the binding result was “no binding”.
